Measurements as given in IntAct's records for PubMed 16325581.

B1: SH3 domain-binding protein 4 (Homo sapiens), Q9P0V3 (parent)
chain: MAAQRIRAANSNGLPRCKSEGTLIDLSEGFSETSFNDIKVPSPSALLVDNPTPFGNAKEVIAIKDYCPTNFTTLKFSKGDHLYVLDTSGGEWWYAHNTTEMGYIPSSYVQPLNYRNSTLSDSGMIDNLPDSPDEVAKELELLGGWTDDKKVPGRMYSNNPFWNGVQTNPFLNGNVPVMPSLDELNPKSTVDLLLFDAGTSSFTESSSATTNSTGNIFDELPVTNGLHAEPPVRRDNPFFRSKRSYSLSELSVLQAKSDAPTSSSFFTGLKSPAPEQFQSREDFRTAWLNHRKLARSCHDLDLLGQSPGWGQTQAVETNIVCKLDSSGGAVQLPDTSISIHVPEGHVAPGETQQISMKALLDPPLELNSDRSCSISPVLEVKLSNLEVKTSIILEMKVSAEIKNDLFSKSTVGLQCLRSDSKEGPYVSVPLNCSCGDTVQAQLHNLEPCMYVAVVAHGPSILYPSTVWDFINKKVTVGLYGPKHIHPSFKTVVTIFGHDCAPKTLLVSEVTRQAPNPAPVALQLWGKHQFVLSRPQDLKVCMFSNMTNYEVKASEQAKVVRGFQLKLGKVSRLIFPITSQNPNELSDFTLRVQVKDDQEAILTQFCVQTPQPPPKSAIKPSGQRRFLKKNEVGKIILSPFATTTKYPTFQDRPVSSLKFGKLLKTVVRQNKNHYLLEYKKGDGIALLSEERVRLRGQLWTKEWYIGYYQGRVGLVHTKNVLVVGRARPSLCSGPELSTSVLLEQILRPCKFLTYIYASVRTLLMENISSWRSFADALGYVNLPLTFFCRAELDSEPERVASVLEKLKEDCNNTENKERKSFQKELVMALLKMDCQGLVVRLIQDFVLLTTAVEVAQRWRELAEKLAKVSKQQMDAYESPHRDRNGVVDSEAMWKPAYDFLLTWSHQIGDSYRDVIQELHLGLDKMKNPITKRWKHLTGTLILVNSLDVLRAAAFSPADQDDFVI
partner: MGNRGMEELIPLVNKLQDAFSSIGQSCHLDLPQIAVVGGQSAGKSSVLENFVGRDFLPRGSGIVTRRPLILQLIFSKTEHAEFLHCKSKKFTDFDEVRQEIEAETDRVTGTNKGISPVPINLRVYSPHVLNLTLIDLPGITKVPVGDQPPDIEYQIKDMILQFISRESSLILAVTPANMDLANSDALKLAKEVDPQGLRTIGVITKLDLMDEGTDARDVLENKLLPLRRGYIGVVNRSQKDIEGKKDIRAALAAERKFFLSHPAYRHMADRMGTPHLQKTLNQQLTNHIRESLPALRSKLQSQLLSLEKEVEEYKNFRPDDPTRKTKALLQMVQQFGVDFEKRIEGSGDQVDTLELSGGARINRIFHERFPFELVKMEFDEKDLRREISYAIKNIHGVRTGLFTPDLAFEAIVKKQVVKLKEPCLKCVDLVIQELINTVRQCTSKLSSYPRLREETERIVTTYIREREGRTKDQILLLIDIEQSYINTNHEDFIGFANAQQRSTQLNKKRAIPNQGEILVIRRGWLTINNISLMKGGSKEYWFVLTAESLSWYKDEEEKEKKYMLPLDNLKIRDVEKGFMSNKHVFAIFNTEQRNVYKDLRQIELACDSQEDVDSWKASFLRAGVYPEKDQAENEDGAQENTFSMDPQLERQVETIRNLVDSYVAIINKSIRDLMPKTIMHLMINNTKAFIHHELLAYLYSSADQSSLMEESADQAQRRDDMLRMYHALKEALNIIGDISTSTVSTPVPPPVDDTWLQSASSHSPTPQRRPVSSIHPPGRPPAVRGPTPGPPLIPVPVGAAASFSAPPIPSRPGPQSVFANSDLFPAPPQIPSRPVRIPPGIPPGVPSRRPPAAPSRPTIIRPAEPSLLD
B2: SH3 domain-binding protein 4 (Homo sapiens), Q9P0V3 (parent)
chain: B1 chain

Variants of: B1
Details: with dyn2_human DNM2, P50570

W92A was tested. Which “effect of a mutation on the interaction” value did it give?
The value was “disrupting interaction”.

Variants of: B2
Details: with tfr1_human TFRC

W92A was tested. Which “effect of a mutation on the interaction” value did it give?
Its value is “disrupting interaction”.
